Source: patent US12059429B2, “Hornerin: a novel non-VEGF mediated angiogenic protein expressed in both human and mouse angiogenic endothelial cells and human pancreatic cancer cells” (University of Virginia Patent Foundation, priority 2018, dated 2024)

System: hornerin
Test: Immunoblot of hornerin in HUVECs treated with growth factors
Format: cell-based, human
Conditions: 24 hours treatment; growth factors at published B-max concentrations, EGF at increasing concentrations
Protocol: HUVECs were cultured in 10 cm dishes for 24 hours prior to a change to media containing VEGF (at B-max concentration), TCM, or VC. After 24 hours treatment, the cells were washed with DPBST two times and lysed with radioimmunoprecipitation assay (RIPA) buffer (Thermo Scientific). Lysate protein concentrations were measured by the bicinchoninic acid assay (Pierce, Waltham, MA, USA) and equivalent amounts of protein were loaded into precast 4-15% tris-glycine eXtended (TGX) polyacrylamide gels (Bio-Rad, Hercules, CA, USA). The proteins were resolved by electrophoresis and transferred to nitrocellulose membranes using the iBlot system (Invitrogen, Carlsbad, CA, USA). The membranes were then washed in Tris-buffered saline+1% Tween-20 (TBST), blocked for 30 minutes in TBST+2% milk solution, and incubated overnight at 4° C. with primary antibodies anti-hornerin (Abcam, Cambridge, UK, ab78909; (1:1000)) and anti-HSP90 (Cell Signaling Technology, Danvers, MA, USA, 4877; (1:1000)). The following day the membranes were washed and subsequently incubated with the secondary antibodies anti-goat HRP (R&D Systems, Minneapolis, MN, USA, HAF109; 1:5000) and anti-rabbit HRP (GE Healthcare, NA934V; 1:5000) for 45 minutes at RT. […]
Major constituents of TCM were determined using a Human Angiogenesis Antibody Array (Affymetrix, Santa Clara, CA, USA) per manufacturer's instructions. […]

B1: IL-12: growth factor found in TCM, added to HUVECs at published B-max concentration (protein, UniProt P29459 23-219; P29460 23-328, looked up)
Interleukin-12 subunit alpha: RNLPVATPDPGMFPCLHHSQNLLRAVSNMLQKARQTLEFYPCTSEEIDHEDITKDKTSTVEACLPLELTKNESCLNSRETSFITNGSCLASRKTSFMMALCLSSIYEDLKMYQVEFKTMNAKLLMDPKRQIFLDQNMLAVIDELMQALNFNSETVPQKSSLEEPDFYKTKIKLCILLHAFRIRAVTIDRVMSYLNAS
Interleukin-12 subunit beta: IWELKKDVYVVELDWYPDAPGEMVVLTCDTPEEDGITWTLDQSSEVLGSGKTLTIQVKEFGDAGQYTCHKGGEVLSHSLLLLHKKEDGIWSTDILKDQKEPKNKTFLRCEAKNYSGRFTCWWLTTISTDLTFSVKSSRGSSDPQGVTCGAATLSAERVRGDNKEYEYSVECQEDSACPAAEESLPIEVMVDAVHKLKYENYTSSFFIRDIIKPDPPKNLQLKPLKNSRQVEVSWEYPDTWSTPHSYFSLTFCVQVQGKSKREKKDRVFTDKTSATVICRKNASISVRAQDRYYSSSWSEWASVPCS
hornerin expression in HUVECs: might stimulate hornerin expression
